Measured values taken from FireProtDB (doi:10.1021/tx3002115).

B1: DNA polymerase IV, Q97W02 (parent)
chain: MIVLFVDFDYFYAQVEEVLNPSLKGKPVVVCVFSGRFEDSGAVATANYEARKFGVKAGIPIVEAKKILPNAVYLPMRKEVYQQVSSRIMNLLREYSEKIEIASIDEAYLDISDKVRDYREAYNLGLEIKNKILEKEKITVTVGISKNKVFAKIAADMAKPNGIKVIDDEEVKRLIRELDIADVPGIGNITAEKLKKLGINKLVDTLSIEFDKLKGMIGEAKAKYLISLARDEYNEPIRTRVRKSIGRIVTMKRNSRNLEEIKPYLFRAIEESYYKLDKRIPKAIHVVAVTEDLDIVSRGRTFPHGISKETAYSESVKLLQKILEEDERKIRRIGVRFSKFIEAIGLDKFFDT

Variants of: B1
Settings: Saccharolobus solfataricus (strain ATCC 35092 / DSM 1617 / JCM 11322 / P2); pH 7.5; Thermal; CD; Na3PO4; NaCl MgCl2 50000 5000; structure 2RDI; whole UniProt chain shown

| Variant | Tm [°C] | unfolding enthalpy (calorimetric) [kcal/mol] |
| --- | --- | --- |
| E100A K148A E235A R240A | 90 | 163 |
| E100A K148A | 89.4 | 135 |
| E235A R240A | 90.3 | 125 |
| E100A E235A R240A | 88.3 | 193 |
| R240A | 96.5 | 93 |
| K148A E235A R240A | 90.3 | 172 |
